Assay results taken from the DeepSol protein solubility set.

Assay: soluble on expression in E. coli; label from the status in PepcDB or PDB records

Soluble on expression in E. coli, soluble:
SNPQIRNPMKAMYPGTFYFQFKNLWEANDRDETWLCFTVEGIKRRSVVSWKTGVFRNQVDSETHCHAERCFLSWFCDDILSPNTKYQVTWYTSWSPCPDCAGEVAEFLARHSNVNLTIFTARLYYFQYPCYQEGLRSLSQEGVAVEIMDYEDFKYCWENFVYNDNEPFKPWKGLKTNFRLLKRRLRESLQ
MIRGEYLLRELNQNILLQSCQEFVKDYLDTICSFYLGKEVWYRFTELTNTEANCLVGTKEFFDEGHPLFGYRGTRRLLACLDEFQAEAHVVTEVYQTNPNLSVIFPFVNDADQLKQAITVLRQQGFTGKVGTMIELPSAYFDLSSILETGISKIVVGMNDLTSFVFATMRNSQWHDMESPIMLDMLRDMQDKARKNKIDFAVAGYLNTSFIQKMNQLGIKCIIHYSSIPEIFDLEIDHPDHLKHIKEESKKLQRSTHDTARNVE
MSLAQEIALTPQPAHLTVKDGRFEFGNQLKAKVTPYQGDSIRMVFESFKKELQEATGIKVSSTQKEAKARIILDLNPQLPAEAYKLNVSKKQVRIEASRPAGFYYALQTLKQLMPRNVMAGVATSDHSQWSLPSVEIEDAPRFEWRGFMLDEGRHFFGKDEIKRVIDMMAIYKMNRFHWHLTEDQGWRIEIKKYPKLTETGAWRNSKVLAYGDVKPDGERYGGFYTQKDIKEIVAYAKKKFIEIIPEIDIPGHSQAAVAAYPEFLACDPRDKHEVWLQQGISTDVINVANPKAMQFAKEVIDELTELFPFNYIHLGGDECPTRKWQKNDECKKLLSEIGSSNFRDLQIYFYKQLKDYIATKPADQQRQLIFWNEVLHGNTSILGNDITIMAWIGANAAAKQAAKQGMNTILSPQIPYYINRKQSKLPTEPMSQGHGTETVEAVYNYQPLKDVDAALQPYYKGVQANFWTEWVTEPSVLEYLMLPRLAAVAEAGWTPQEKRNYEDFKERIRKDAELYDLKGWNYGKHIMKEGHHHHHH
MKKESQVIFDKNVIEFVTVAAEFCAFLERAESMKRSTFVDTTLKILPLLYLKASMLPKCEMIGDESPETYVTEEIYEVLRINLASILAEKDDYLEVFLPDMAYSDEPIKKNISEDLADIYQDIKDFIFVFQLGLNETMNDSLAICQENFGLLWGQKLVNTMRALHDVKYSPKARLEHHHHHH
MRVKTGVVRRRRHKKVLKLARGFYSGRRKHFRKAKEQLERSMYYAFRDRKQKKREFRSLWVVRINAACRMHNTSYSRFMHALKVANIELDRKVLADMAMNDMQAFTSVLESVKEHLLEHHHHHH
MVEGKVTLRLRYTKTGAMRFLSHLEMIGLFTRAVGRSRIPIRFSRGFHPHPKFSFATALSVGVESWAEYLDMELFPGADPTDIGTRLNGALPEGVRIVEASVIPPGSPSLSVIMDKVRYRVTLPPEAAVGLPELAAAFLARESVPLRREKKGRVLEHHHHHH
MSEPILKVENLKKYFPVRRGFLSALRGEPQKFVKAVDGVSFEIYKQQVFALVGESGCGKTTTGKLIVKLLEPTDGKIYLEGQDVTELRTKEEIKAYRRKVQMIFQDPFSSMNPRFRIYDVLEEPLLIHGIGETRAEREELIYKALEMVKITPPEEYVGRFPHMLSGGQRQRVAIARALILNPTFVVADEPVSMLDVSIRAEILELMKELKEKMGVTYLYITHDLSTARYFADWIAVMYLGRIVEMGPAKEIIDNPLHPYTRALLAAVPEPIPERKDVIKELPIKGEVPSAVNIPSGCRFHPRCIYFKKGLCDVKQPQLIEYSHNHWVECHRVGEI
GMTRTMSFHKNCELCTTAGGEILWQDALCRVVHVENQDYPGFCRVILNRHVKEMSDLRPAERDHLMLVVFAVEEAVREVMRPDKINLASLGNMTPHVHWHVIPRFKRDRHFPNSVWGETKRESLPQALDQGSTTALKKAISVRLDQGEPVFMGM
MDLNATNYIRGCQSKTYDGKIFPGKGGEKQWICKDTIIHGDTNGACIPPRTQNLCVGELWDKSYGGRSNIKNDTKELLKEKIKNAIHKETELLYEYHDTGTAIISKNDKKGQKGKNDPNGLPKGFCHAVQRSFIDYKNMILGTSVNIYEHIGKLQEDIKKIIEKGTPQQKDKIGGVGSSTENVNAWWKGIEREMWDAVRCAITKINKKNNNSIFNGDECGVSPPTGNDEDQSVSWFKEWGEQFCIERLRYEQNIREACTINGKNEKKCINSKSGQGDKIQGACKRKCEKYKKYISEKKQEWDKQKTKYENKYVGKSASDLLKENYPECISANFDFIFNDNIEYKTYYPYGDYSSICSCEQVK
MAHHHHHHMPSSFAAQQQGSCNPHQNPVRSHKGGYLRCPFNISSSYAELAERRVHEDLACGRSRAAVADKDGVKAFPSTGPQVDSDGIDGDFAGRPWSRAGVGANRLSGKEKRTQQEQAEHIYGRGTLAEDDGAVAATGAVSVTSDLLQENMFAVDVRERAALQKVVPRAVREQVKRRKLEDVKKERLSPGNHCRHGCAPLHTDRAAGEEAGEDDDVESRSEDHMAGPPRERTRFSSPAAGSSRVGAPPLPHSAGSKDHPSGGSSSANVGAERSPRSGPSDASAQRPPLREPTPAPVSAKSNCPKNRMQMLDGLRASALMNKKGRR
MYSDDLLLEEDSADESSLANAFSRGMQLGSTDASSYSRRFNSNASTSSSNPTTQRRYAPNQAFSQVETGSPPSNDPHARFGQHIPGSQYIPHVSQNSPSRLGQQPPQRYNHGRPNAGRTMDRNHMNAQLPPSNTNSGGQQRSPRSSSYTNGVPWGRRTNNHVPNVPSTSHGRVDYGSIA

Soluble on expression in E. coli, not soluble:
MGSDKIHHHHHHMIRIANGQGFWGDWLEAPVRLVEQGPLDYLALDYLAEVTMSILQKQKQADPKLGYARDFPPLIARIAEQIRERGVTVIANAGGVNPVACAREVVRLAPGLKVAVVLGDDVYPRLDSFLAKGYEMRDMDTGEPIAAIRDRIQSANAYIGAFPLAEALGTGANVVIAGRSTDTALALAPMVHRFGWGPDAFDRLAAGTIAGHIIECGAQCTGGNCQVDWESIPDMANIGYPIVEAEPDGSFVVTKHPAAGGRVSLDSVKEQLLYELGDPQRYITPDCIADFTSVRLAADGPDRVRVTDIRGGPRPPSLKLSISYANGWKAVGTLVYSWPQALAKARAADRIVRERLRNLGLSFEEIHTEFFGVSACHGALAPPNPDPPEVQLRIGVRGQDKKAVDRFTRELIPLVLNGPPGATGFGEGRPPVREIVAYWSTLVPREEIDTRVEVVE
MGSDKIHHHHHHMRYESSKKILVIEDDAVTRNLFLEVLEAQGFDTIGAEDGVAGIQKAQEHLPDLVICDIQMPDMDGYTVLARLRQDPHTAIIPFIFLTGSNTQTDVRKGMESGADDYLTKPSSIEDFLRAIAVRLEKQAFLRYWYATNSHQTAQSPPSSFNSESIFPSVPQLQAVFDFIEANYRQGITLSDVALAVGYSPAYLTNRVAKQTGETVNAWIVKRRMAAARPLLRDTNQTIDQIAIALGYQNTCHFSRQFRQHHGLSPKTWRKQQQLLQSSKNAKLQLIKNHDALEKLVPLGC
MSFDGFFLHHLTNELKENLLYGRIQKVNQPFERELVLTIRNHRKNYKLLLSAHPVFGRVQITQADFQNPQVPNTFTMIMRKYLQGAVIEQLEQIDNDRIIEIKVSNKNEIGDAIQATLIIEIMGKHSNIILVDRAENKIIESIKHVGFSQNSYRTILPGSTYIEPPKTAAVNPFTITDVPLFEILQTQELTVKSLQQHFQGLGRDTAKELAELLTTDKLKRFREFFARPTQANLTTASFAPVLFSDSHATFETLSDMLDHFYQDKAERDRINQQASDLIHRVQTELDKNRNKLSKQEAELLATENAELFRQKGELLTTYLSLVPNNQDSVILDNYYTGEKIEIALDKALTPNQNAQRYFKKYQKLKEAVKHLSGLIADTKQSITYFESVDYNLSQASIDDIEDIREELYQAGFLKSRQRDKRHKRKKPEQYLASDGTTILMVGRNNLQNEELTFKMAKKGELWFHAKDIPGSHVIIKDNLDPSDEVKTDAAELAAYYSKARLSNLVQVDMIEAKKLHKPSGAKPGFVTYTGQKTLRVTPDQAKILSMKLS
MAGHSIPHFQNDGGHSVIEIGVKEFMCTGASVPFDHPHIFIDMGDDNEKVCSYCSTLYRYNPSLKAEQTNPPGCVFHVKAA
MTLKNNILPLLMLSCCFVLAACSSSNSASASASNKNKNMEPNKGRYSLKNDKMPLNPPNVDHVPNATPKYEPYSRRGNKPYTVYGESYTVLNSGEGFSETGRASWYGEKFHGYETSNGEPYDMYGMSGAHKTLPLPSYARVTNLDNNKQVIIRINDRGPFHSERILDLSYAAAYKLGMLGTGTARIKLDVIYIGSKAATQSAIASVHSSGNHYIQLVASKDKQRLHKMAKDLEKKYQVKTRVQPANNMFRLQLGPIGQAELADRLLIKVKQDGYPAGYIVSEK
MSLPAKRKLTMRHIRQMLRLAGSGTSSREIAVMLGIARSTVQDNLKRAAMAGLSWALASGLTDDVLEAKLFVHPGVKRGQRLRQEPDWGPLSIELKKPGVTLLILWEEYRSAHPDGYGYSRFCELFRGFEKRLSPTMRQEHIAGDKVFVDYSGKKVPIVDRKTGEIREAELFLGVLGASSYCTRGRSVHLGELLRRAWIFQHLGNREGHHHHHH
MCGIIGFMSRTGRLISGDRIATALNCLKERGNGEGSGYVGYGIYPDYKDDYAIHVFLDATKDYDRIRHEVEEVLVKYGYILKDEEIPTEEGIIKQEQVSWRFFYRFDEKYKTVEEDLMVDIVMDINAKIDGAFVFSSGKNMGVFKAAAWPLEVAEYFKIDQYKGFQWLSHARYPTNTKGWWGGAHPFNLLGWSVVHNGEITSYGANKRYVESFGYKCKLLTDTEVVAYLFDLLIRKHKIPVEYAMSALAPRFWDEIEIMSEEDKKIHEAIRMTYGGATMNGPFGIVVGTQEGMVFMNGEVEEGNTMVGLTDRIKLRPLVAAEKDDLLFVSSEESAIRKICPELDRVWMPDAGRMVIAKLEKKI
MKEKIPFYNEKEFHDMVKKTKKGTFSGWYIIDKDNNSVEFSGKFNRQFKLNKPVIPVNTEYVTRKEFNEYKNSNDQRLTKIETTLAAQGEQINKLTQTVEKQGEQINQLVQVVLLHGEQINKLTQTVEKQGEQIKELQIEQKAQGETLKLILQTLQKMSDRLDKMEVKMDKMEVKMDKMEVKMDKMEKRIDKLESKLEHHHHHH
MNNPKPCEWKSNELSRGYIADYKAFNFVDGEGVRCSLYVSGCPFHCEGCYNKAAQSFKYGKPYTKELEDDILKDIGHESVQGLTLLGGEPFLNTATCLSIVKRIRATYGETKDIWSWTGYTWDEMMQETADKLELLSLIDVLVDGRFEQKLFDPNLAFRGSSNQRIIDVQKSLAAGEVVLYELLEHHHHHH
LRRTALNGRFCRLEPLDVDRHAADLFAAYALGDNSDWTWLASTRPESVTATAHWIAGKVNDDVLVPYAVVDLRSEQAVGIVSYMAIEREMGTVEIGHVTWSRRMKNTPLGTEAVWLLLKNGFDHGYRRLEWKCDSMNVASRRAAERLGFSWEGRLRQRLVRKGRTRDSDMLSIIDGEWPARD
MGSDKIHHHHHHMQFEMHDHVKGKAMSYPVTSQPQCANTCYQTQLSDWHTGLTDCCNDMPVCLCGTFAPLCLACRISDDFGECCCAPYLPGGLHSLRTGMRERYHIQGSVGHDWAALTFCLPCALCQMARELKIRE
VWPTAKQAASLIGLDPKLLVAQAALETGWGRFVTRDADGSSSNNLFNIKTGSHSEVESIQVKTTEYIADTPIKINASFRKYPSIEHSFHDYVSLIKGSERYQMALANAENPEIFVSELNKAGYATDPNYSNKILSIYHGDELNQAIQRCESFEQS
